Reference: article PMC9166773, “Latrophilin-2 is a novel receptor of LRG1 that rescues vascular and neurological abnormalities and restores diabetic erectile function” (Experimental & Molecular Medicine, 2022)

T1: LPHN2 Lec-Olf domains (F26-P394) (UniProt O95490 26-394)
T1 construct: LPHN2 (ADGRL2) lectin and olfactomedin-like domains, residues F26-P394; Both Fc-tagged and tag-free forms were made; source: Expi293F, purified (protein A resin; tag-free form by on-resin thrombin digestion; Superdex 200)
T1 sequence (looked up): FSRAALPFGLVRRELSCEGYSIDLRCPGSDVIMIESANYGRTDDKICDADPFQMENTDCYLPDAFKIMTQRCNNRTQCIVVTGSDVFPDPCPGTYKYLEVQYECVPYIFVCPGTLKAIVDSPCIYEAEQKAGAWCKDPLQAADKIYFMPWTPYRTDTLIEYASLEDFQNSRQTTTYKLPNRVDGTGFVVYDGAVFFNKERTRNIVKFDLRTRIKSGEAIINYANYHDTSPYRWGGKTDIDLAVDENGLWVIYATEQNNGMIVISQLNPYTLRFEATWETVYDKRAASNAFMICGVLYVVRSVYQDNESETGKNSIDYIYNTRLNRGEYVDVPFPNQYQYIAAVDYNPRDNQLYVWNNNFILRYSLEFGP

B1: LPHN2 Olf domain (V135-P394) (domain or fragment, UniProt O95490 135-394, looked up)
chain: VCPGTLKAIVDSPCIYEAEQKAGAWCKDPLQAADKIYFMPWTPYRTDTLIEYASLEDFQNSRQTTTYKLPNRVDGTGFVVYDGAVFFNKERTRNIVKFDLRTRIKSGEAIINYANYHDTSPYRWGGKTDIDLAVDENGLWVIYATEQNNGMIVISQLNPYTLRFEATWETVYDKRAASNAFMICGVLYVVRSVYQDNESETGKNSIDYIYNTRLNRGEYVDVPFPNQYQYIAAVDYNPRDNQLYVWNNNFILRYSLEFGP
notes: LPHN2 (ADGRL2) olfactomedin-like domain, residues V135-P394; Both Fc-tagged and tag-free forms were made; also called olfactomedin-like domain; source: Expi293F, purified (protein A resin; tag-free form by on-resin thrombin digestion; Superdex 200)
B2: Leucine-rich alpha-2-glycoprotein 1 (LRG1), recombinant tag-free human LRG1 (ligand, UniProt P02750 36-347, looked up)
chain: VTLSPKDCQVFRSDHGSSISCQPPAEIPGYLPADTVHLAVEFFNLTHLPANLLQGASKLQELHLSSNGLESLSPEFLRPVPQLRVLDLTRNALTGLPPGLFQASATLDTLVLKENQLEVLEVSWLHGLKALGHLDLSGNRLRKLPPGLLANFTLLRTLDLGENQLETLPPDLLRGPLQLERLHLEGNKLQVLGKDLLLPQPDLRYLFLNGNKLARVAAGAFQGLRQLDMLDLSNNSLASVPEGLWASLGQPNWDMRDGFDISGNPWICDQNLSDLYRWLQAQKDKMFSQNDTRCAGPEAVKGQTLLAVAKSQ
notes: human LRG1, residues V36-Q347; In the TriCEPS capture LRG1 was coupled to the TriCEPS reagent; Residues of the thrombin site may remain after cleavage; also called recombinant LRG1; soluble LRG1; not shown: Fc (human IgG), C-terminal, cleaved

Assays:
[1] = target: B2; assay: solid-phase binding assay; LRG1 and recombinant extracellular domains of LPHN2 (and Lec/Olf of LPHN1, LPHN3); who was immobilised and conditions not told in the text shown; details: both partners purified
[2] = target: T1, LPHN2 Lec-Olf domains (F26-P394); assay: as above; details: both partners purified

Kd [1] | Kd [2] | Binder
920 nM | – | B1
– | 890 nM | B2
